This passage reports IC50 and EC50 results from patent US20240182572A1 (OSE IMMUNOTHERAPEUTICS, published 2024).

The target in test [1] is T1, biotinylated Human PD1 (AcroBiosystems, reference EP-101) (human, UniProt Q15116 25-167, limits assumed, biotinylated (site not stated)).
T1 construct: Kit reagent; also called Biotin-PD-1Fc; not shown: Fc part, named only as 'Biotin-PD-1Fc'
The test is described as follows: competitive ELISA: hPDL1 immobilized, biotinylated human PD1 at 0.66 µg/ml mixed with the antibody, streptavidin detection. The method, then:
To measure antagonist activity of the bifunctional antibody, a competitive ELISA assay was performed by PD-1:PD-L1 Inhibitor Screening ELISA Assay Pair (AcroBiosystems; USA; reference EP-101). In this assay, recombinant hPDL1 was immobilized on plastic at 2 μg/ml in PBS pH 7.4 buffer.
Competitive ELISA assay was performed by PD-1:PD-L1 Inhibitor Screening ELISA Assay Pair (Acro Biosystems; USA; reference EP-101). In this assay, recombinant hPDL1 was immobilized on plastic at 2 μg/ml in PBS pH 7.4 buffer.
For orientation: ELISA stands for enzyme-linked immunosorbent assay.

Test [2] deals with T2, Recombinant hPD1 (Sino Biologicals, reference 10377-H08H) (human, UniProt Q15116 25-167).
T2 construct: Bought recombinant protein; also called Human recombinant PD-1 (rPD1) protein; human PD-1
T2 sequence (Q15116 25-167 limits assumed): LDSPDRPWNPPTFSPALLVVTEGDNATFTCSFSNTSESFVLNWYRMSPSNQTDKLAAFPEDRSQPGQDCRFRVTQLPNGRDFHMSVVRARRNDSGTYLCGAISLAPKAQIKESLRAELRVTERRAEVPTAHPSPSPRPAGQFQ
Nature of the test: ELISA, recombinant hPD1 immobilized, detection with peroxidase-labeled anti-human IgG. The procedure:
Recombinant hPD1 (Sino Biologicals, Beijing, China; reference 10377-H08H) was immobilized on plastic at […] in carbonate buffer (pH 9.2) and purified antibody was added to measure binding.
For activity ELISA assay, recombinant hPD1 (Sino Biologicals, Beijing, China; reference 10377-H08H) was immobilized on plastic at 0.5 μg/ml in carbonate buffer (pH 9.2) and purified antibody were added to measure binding.

T1 sequence (Q15116 25-167 limits assumed): as above

B1: anti PD-1*1/SIRPg*1 (bispecific antibody, human IgG1, kappa, N297A)
chain: DKTHTCPPCPAPELLGGPSVFLFPPKPKDTLMISRTPEVTCVVVDVSHEDPEVKFNWYVDGVEVHNAKTKPREEQYASTYRVVSVLTVLHQDWLNGKEYKCKVSNKALPAPIEKTISKAKGQPREPQVYTLPPCRDELTKNQVSLWCLVKGFYPSDIAVEWESNGQPENNYKTTPPVLDSDGSFFLYSKLTVDKSRWQQGNVFSCSVMHEALHNHYTQKSLSLSPGK
heavy: not shown
light: DVVMTQSPLSLPVTLGQPASISCRSSQSLVHANTNTYLEWYQQRPGQSPRLLIYKVSNRFSGVPDRFSGSGSGTDFTLKISRVEAEDVGVYYCFQGTHVPNTFGQGTKLEIKRTVAAPSVFIFPPSDEQLKSGTASVVCLLNNFYPREAKVQWKVDNALQSGNSQESVTEQDSKDSTYSLSSTLTLSKADYEKHKVYACEVTHQGLSSPVTKSFNRGEC
notes: IgG1 N298A isotype, knob-into-hole; also called anti-PD-1*1/SIRP*1; Anti PD-1*1 SIRP*1
Consider B1, for which the IC50 (usually the midpoint of a concentration-inhibition curve) in test [1] worked out at 6.9 nM. Also, the EC50 (as a rule, the concentration needed to bring the measured effect to its halfway point) in test [2] is 0.33 nM.
